These results are taken from PMC2173577.

This test concerns the target Grb2, endogenous in Cos-7 cells (African green monkey (endogenous in Cos-7)). The test is described as follows: co-IP.

Consider “Sos-1, endogenous in Cos-7 cells (natural protein)”, for which the fold excess of the Sos-1–Grb2 complex over the Sos-1–E3b1 complex (co-IP) worked out at 10 fold.
